Positions count from the first letter of the chain named.
Columns and labels:
Assay in all cases: GC-MS of phenylacetaldehyde, Lineweaver-Burk
Me3G_2284 (PAAS) = type: biochemical, Murraya paniculata; details: pH 8.5 Tris-HCl, 28 °C, 0.2 mM PLP, 0.1 mM EDTA; read-out: apparent Km
Me2G_2382 (PAAS) = molecular target: T1, Me2G_2382 (PAAS) (Murraya paniculata, UniProt Z9M7G4IQ32); type: biochemical; details: pH 8.5 Tris-HCl, 28 °C, 0.2 mM PLP, 0.1 mM EDTA
T1 sequence (Z9M7G4IQ32 1-505): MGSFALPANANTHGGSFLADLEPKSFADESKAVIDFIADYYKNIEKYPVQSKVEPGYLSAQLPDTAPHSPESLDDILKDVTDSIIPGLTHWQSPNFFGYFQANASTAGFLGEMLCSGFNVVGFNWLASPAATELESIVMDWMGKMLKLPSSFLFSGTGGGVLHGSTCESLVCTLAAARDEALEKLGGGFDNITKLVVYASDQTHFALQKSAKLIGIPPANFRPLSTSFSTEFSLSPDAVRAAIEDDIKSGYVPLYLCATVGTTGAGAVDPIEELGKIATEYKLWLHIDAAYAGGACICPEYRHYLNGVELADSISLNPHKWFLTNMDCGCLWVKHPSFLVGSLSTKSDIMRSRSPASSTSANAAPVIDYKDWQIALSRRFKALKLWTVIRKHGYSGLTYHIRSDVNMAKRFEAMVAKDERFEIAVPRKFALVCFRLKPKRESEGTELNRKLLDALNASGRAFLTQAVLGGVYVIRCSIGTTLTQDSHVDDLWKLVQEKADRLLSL

Me5G_1302 (PAAS) = type: biochemical, Murraya paniculata; details: pH 8.5 Tris-HCl, 28 °C, 0.2 mM PLP, 0.1 mM EDTA; read-out: apparent Km
Me3G_1222 (PAAS) = molecular target: T2, Me3G_1222 (PAAS) (Murraya paniculata, UniProt Z9VGT8ZCM8); type: biochemical; details: pH 8.5 Tris-HCl, 28 °C, 0.2 mM PLP, 0.1 mM EDTA; read-out: apparent Km
T2 sequence (Z9VGT8ZCM8 1-380): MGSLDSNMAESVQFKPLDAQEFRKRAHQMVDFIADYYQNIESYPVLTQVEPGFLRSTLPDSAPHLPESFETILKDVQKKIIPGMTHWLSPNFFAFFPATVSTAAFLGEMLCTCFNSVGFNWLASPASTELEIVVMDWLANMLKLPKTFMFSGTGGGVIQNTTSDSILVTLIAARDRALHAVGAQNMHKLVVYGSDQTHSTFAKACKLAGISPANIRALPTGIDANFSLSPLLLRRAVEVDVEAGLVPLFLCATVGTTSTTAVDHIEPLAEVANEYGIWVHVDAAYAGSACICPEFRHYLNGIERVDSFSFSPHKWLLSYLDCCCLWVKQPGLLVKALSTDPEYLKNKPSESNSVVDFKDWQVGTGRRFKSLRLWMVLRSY

Me4G_0535 (PAAS) = type: biochemical, Murraya paniculata; details: pH 8.5 Tris-HCl, 28 °C, 0.2 mM PLP, 0.1 mM EDTA; read-out: apparent Km
[1] = substrate: N[C@@H](Cc1ccccc1)C(=O)O; type: biochemical, Murraya paniculata; details: pH 8.5 Tris-HCl, 28 °C, 0.2 mM PLP, 0.1 mM EDTA

## N[C@@H](Cc1ccccc1)C(=O)O [L-phenylalanine]
Me3G_2284 (PAAS)
  Km: 36.6 ± 4.35 mM
Me2G_2382 (PAAS)
  apparent Km: kinetic characterisation of purified recombinant PAAS revealed an apparent Km for L-phenylalanine (L-Phe)
Me5G_1302 (PAAS)
  Km: 9.89 ± 1.77 mM
Me3G_1222 (PAAS)
  Km: 9.99 ± 0.46 mM
Me4G_0535 (PAAS)
  Km: 2 ± 0.54 mM

B1: Me2G_2379 (PAAS) (Murraya paniculata) (protein)
chain: MGSFALPPNGNTHGRSFSADLEPKSFADEAKAVIDFIADYYKNIEKYPVQSKVEPGYLSAQLPDTAPHSPESLDDILKDVTDSIIPGLTHWQSPNFFGYFQANASTAGFLGEMLCSGFNVVGFNWLASPAATELESIVMDWMGKMLKLPSSFLFSGTGGGVLHGSTCESLVCTLAAARDEVLEKLGGGFDNITKLVVYASDQTHFALQKSAKLIGIPPANFRPLSTSFSTEFSLSPDAVRAAIEDDIKSGYVPLYLCATVGTTGAGAVDPIEELGKIATEYKLWLHIDAAYAGGACICPEYRHYLNGVELADSISLNPHKWFLTNMDCGCLWVKHPSFLVGSLSTKSDIMRSRSPASSTSANAAPVIDYKDWQIALSRRFKALKLWTVIRKHGYSGLTYHIRSDVNMAKRFEAMVAKDERFEIAVPRKFALVCFRLKPKRESEGTELNRKLLDALNASGRAFLTQAVLGGVYVIRCSIGTTLTQDSHVDDLWKLVQEKADRLLSLQEPEHARC
[1]
  Km: 3.7265 ± 0.83 mM
  kcat/Km: 100 M⁻¹ s⁻¹

B2: Me2G_2381 (PAAS) (Murraya paniculata) (protein)
chain: B1 chain with P8A, G10A, R15G, S360R, R512G
[1]
  Km: 1.7943 ± 0.60 mM
  kcat/Km: 62.9 M⁻¹ s⁻¹

B3: Me1G_2960 (PAAS) (Murraya paniculata) (protein)
chain: MDAEQLRENAHKMVDFIADYYKSIENFPVLSQVQPGYLHNLIPDSAPNHPESLQNVLDDIQEKILPGVTHWQSPNYFAYFPSNSSVAGFLGEMLSAGLNIVGFSWITSPAATELEMIVLDWLAKLLKLPEDFLSTGQGGGVIQGTASEAVLVVLLAARDEALKRVGKNSLEKLVVYASDQTHSALQKACQIGGIHRQNFRVLKTDSSTNYSLSPDSLAEAISRDLTMGLIPFFLGATVGTTSSTAVDPLLALGNIAKSNGMWFHVDAAYAGSACICPEYRQYIDGVEKADSFNMNAHKWFLTNFDCSALWVKDRNTLIQSLSTNPEFLKNKVSFYFSVHNMFLYYFLAQLSRPKSKSHLFVFVHINCIMNCPFNNVMLTVVELSTLSGENGNILASQANMVVDYKDWQIPLGRRFRSLKLWMVLRLYGLENLQGYIRNHIQLAKHFEGLVAQDSRFEVVTPRIFSLVCFRLLPPHNDEDHGNKLNHNLLDAVNSTGKIFISHTVLSGKYILRFAVGAPLTEGRHVNAAWEVVRDRASALLARLSTE
[1]
  Km: 1.7851 ± 0.66 mM
  kcat/Km: 55.9 M⁻¹ s⁻¹

B4: Me3G_0317 (PAAS) (Murraya paniculata) (protein)
chain: MGSLTSDLELEYNSNSSINLLDSEEFRRQGHMFVDFMAEYYKTIDKYPVRSQVEPGYLKKRLPESAPYSPESVETILEDVQEHIVPGITHWQSPNYFAYFPATSSVPGILGEMLSSGFNVVGMDWISSPAAVELENIVMDWLGQMLNLPKSFLFSGNGGGVIQGTTCEALLCTLTAARDRVLKKIGRENISKLVVYSSDQTHCAFQKAAQIVGIDRKNIRAIKTTKSSSYGLSAESVLSQINLDVEAGLIPLFLCATVGTTAITAVDPLRPLCDVAKQFGMWVHVDAAYAGSACICPEFRHFIDGVECVDSFSFNPHKWLFTSLDCCCLWVKDPSCLLSTLSTNPHYLKNEATDQEPKGQEVGYKDWQITLCRRFRSLKLWLVIRNFGVANLRNFIRSHVGMAKLFERLVHSDKRFEVAFPRNFSLVCFRVTPSAVMDKLRTKYKNGTHDQYRQLSEEERTNEFNRELLESINVSGKVFMTHAIVGGIYVLRFAAGNSMTMESHVREAWTVVQEHLEAF
[1]
  Km: 2.7821 ± 0.73 mM
  kcat/Km: 45.2 M⁻¹ s⁻¹
